Values quoted from earlier work in paper PMC4676407.

Molecular target: Akt kinase domain kinase domain (Homo sapiens) (UniProt P31749)

Q: Which Kd does the source give for “Akt C-terminal peptide C-terminus (from UniProt P31749)” here?
A: Its Kd is > 5 mM.
